This is an account of results in the supplement of paper PMC10567573.

Sequences and labels used below:
B1: MGC16075 (parent)
chain: AGSRQALSFEVPPCNYDPEKWIQ
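Also: lentivirally expressed fusions sorted by FACS into six bins by GFP to DsRed ratio, PSI derived from sequencing read proportions per bin multiplied by bin number.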

In this series the parent is B1. The series can be described thus: protein stability index of a GFP-peptide fusion (GPS, HEK-293T) (PSI 1-6); higher = more stable. The conditions noted are these: c terminus: native.
As to AGSRQQLSFEVPPCNYDPEKWIQ, the protein stability index amounted to 1.99.
With AGSRQRLSFEVPPCNYDPEKWIQ, the protein stability index worked out at 2.29.
Regarding AGSRQFLSFEVPPCNYDPEKWIQ, the protein stability index amounted to 2.46.
AGSRQKLSFEVPPCNYDPEKWIQ: the protein stability index stood at 2.47.
AGSRQCLSFEVPPCNYDPEKWIQ: the protein stability index worked out at 2.03.
On to AGSRQELSFEVPPCNYDPEKWIQ, for which the protein stability index worked out at 1.92.
With AGSRQALSFEVPPCNWDPEKWIQ, the protein stability index amounted to 1.47.
As for AGSRQALSFEVPPCNRDPEKWIQ, the figure is 1.24.
On to AGSRQALSFEVPPCNVDPEKWIQ, for which the protein stability index was found to be 2.47.
Turning to AGSRQALSFEVPPCNEDPEKWIQ, the protein stability index came to 2.64.
Turning to AGSRQALSFEVPPCNDDPEKWIQ, the protein stability index was found to be 2.52.
As to AGSRQALSFEVPPCNHDPEKWIQ, the protein stability index came out at 1.46.
With AGSRQALSFEVPPCNTDPEKWIQ, the protein stability index is 2.53.
Regarding AGSRQALSFEVPPCNCDPEKWIQ, the protein stability index amounted to 2.17.
Consider AGSRQALSFEVPPCNKDPEKWIQ, for which the protein stability index was 1.61.
As to GGSRQALSFEVPPCNYDPEKWIQ, the protein stability index is 1.68.
Turning to MGSRQALSFEVPPCNYDPEKWIQ, the protein stability index came to 1.25.
In the case of HGSRQALSFEVPPCNYDPEKWIQ, the protein stability index is 1.82.
On to QGSRQALSFEVPPCNYDPEKWIQ, for which the protein stability index is 2.17.
On to RGSRQALSFEVPPCNYDPEKWIQ, for which the protein stability index came to 2.04.
Consider SGSRQALSFEVPPCNYDPEKWIQ, for which the protein stability index was determined as 1.46.
With PGSRQALSFEVPPCNYDPEKWIQ, the protein stability index stood at 2.5.
Regarding IGSRQALSFEVPPCNYDPEKWIQ, the protein stability index was found to be 1.9.
Under LGSRQALSFEVPPCNYDPEKWIQ stands 1.22.
Under FGSRQALSFEVPPCNYDPEKWIQ stands 3.97.
Take AGSRQALSFEVPGCNYDPEKWIQ: the protein stability index came to 2.1.
As to AGSRQALSFEVPICNYDPEKWIQ, the protein stability index amounted to 2.7.
Under AGSRQALSFEVPHCNYDPEKWIQ stands 1.2.
For AGSRQALSFEVPRCNYDPEKWIQ, the protein stability index amounted to 1.29.
As for AGSRQALSFEVPMCNYDPEKWIQ, the protein stability index is 1.3.
Under AGSRQALSFEVPECNYDPEKWIQ stands 1.44; under AGSRQALSFEVPDCNYDPEKWIQ, 1.8; under AGSRQALSFEVPTCNYDPEKWIQ, 1.99.
With AGSRQALSFEVPSCNYDPEKWIQ, the protein stability index amounted to 2.66.
AGSRQALSFEVPKCNYDPEKWIQ: the protein stability index is 2.34.
As to AGSRQALSFEVPVCNYDPEKWIQ, the protein stability index worked out at 2.19.
With AGSRQALSFEVPPTNYDPEKWIQ, the protein stability index is 2.2.
With AGSRQALSFEVPPWNYDPEKWIQ, the protein stability index came out at 1.56.
On to AGSRQALSFEVPPSNYDPEKWIQ, for which the protein stability index amounted to 2.56.
Consider AGSRQALSFEVPPYNYDPEKWIQ, for which the protein stability index is 2.23.
Take AGSRQALSFEVPPMNYDPEKWIQ: the protein stability index is 1.23.
Regarding AGSRQALSFEVPPLNYDPEKWIQ, the protein stability index came out at 1.39.
Regarding AGSRQALSFEVPPFNYDPEKWIQ, the protein stability index was determined as 1.5.
With AGSRQALSFEVPPANYDPEKWIQ, the protein stability index was found to be 2.28.
Turning to AGSRQALSFEQPPCNYDPEKWIQ, the protein stability index was 2.38.
On to AGSRQALSFEAPPCNYDPEKWIQ, for which the protein stability index was determined as 2.52.
For the variant AGSRQALSFEKPPCNYDPEKWIQ, the protein stability index was determined as 2.61.
Under AGSRQALSFEWPPCNYDPEKWIQ stands 2.04.
Turning to AGSRQALSFEYPPCNYDPEKWIQ, the protein stability index is 3.25.
Consider AGSRQALSFENPPCNYDPEKWIQ, for which the protein stability index came to 1.68.
For the variant AGSRQALSFETPPCNYDPEKWIQ, the protein stability index is 1.89.
As to AGSRQALSFEIPPCNYDPEKWIQ, the protein stability index was 2.6.
Consider AGSRQALSFESPPCNYDPEKWIQ, for which the protein stability index was found to be 1.84.
AGSRQALSFEMPPCNYDPEKWIQ: the protein stability index came to 2.11.
For AGSRQALSFEEPPCNYDPEKWIQ, the protein stability index is 2.07.
For AGSRQALSFEHPPCNYDPEKWIQ, the protein stability index worked out at 1.93.
Take AGSRQALSFEPPPCNYDPEKWIQ: the protein stability index was determined as 1.75.
Take AGSRQALDFEVPPCNYDPEKWIQ: the protein stability index is 2.32.
Under AGSRQALAFEVPPCNYDPEKWIQ stands 1.79.
Take AGSRQALIFEVPPCNYDPEKWIQ: the protein stability index worked out at 1.59.
On to AGSRQALVFEVPPCNYDPEKWIQ, for which the protein stability index was determined as 1.54.
Regarding AGSRQALYFEVPPCNYDPEKWIQ, the protein stability index came to 3.25.
For AGSRQALGFEVPPCNYDPEKWIQ, the protein stability index was found to be 1.83.
Under AGSRQALNFEVPPCNYDPEKWIQ stands 1.91; under AGSRQALQFEVPPCNYDPEKWIQ, 1.26.
Under AGSRQALSFDVPPCNYDPEKWIQ stands 2.6; under AGSRQALSFMVPPCNYDPEKWIQ, 2.56.
As to AGSRQALSFIVPPCNYDPEKWIQ, the protein stability index was 2.29.
As to AGSRQALSFGVPPCNYDPEKWIQ, the protein stability index is 1.83.
AGSRQALSFEVPPCNYDPWKWIQ: the protein stability index came out at 2.47.
As to AGSRQALSFEVPPCNYDPGKWIQ, the protein stability index was 2.16.
Turning to AGSRQALSFEVPPCNYDPDKWIQ, the protein stability index turned out to be 2.54.
With AGSRQALSFEVPPCNYDPPKWIQ, the protein stability index stood at 2.28.
As for AGSRQALSFEVPPCNYDPFKWIQ, the figure is 2.33; as for AGSRQALSFEVPPCNYDPTKWIQ, 1.97; as for AGSRQALSFEVPPCNYDPVKWIQ, 1.86.
AGSRQALSFEVPPCNYDPLKWIQ: the protein stability index turned out to be 3.01.
As for AGSRQALSFEVPPCNYDPIKWIQ, the protein stability index amounted to 1.84.
Turning to AGSRQALSFEVPPCNYIPEKWIQ, the protein stability index was 2.17.
Take AGSRQALSFEVPPCNYYPEKWIQ: the protein stability index was 2.15.
Under AGSRQALSFEVPPCNYRPEKWIQ stands 2.15; under AGSRQALSFEVPPCNYSPEKWIQ, 1.49.
For the variant AGSRQALSFEVPPCNYAPEKWIQ, the protein stability index worked out at 2.18.
In the case of AGSRQALSFEVPPCNYPPEKWIQ, the protein stability index came out at 1.74.
Under AGSRQALSFEVPPCNYWPEKWIQ stands 1.91; under AGSRQALSFEVPPCNYLPEKWIQ, 1.81.
Under AGSRQALSFEVPPCNYTPEKWIQ stands 1.92; under AGSRQALSFEVPPCNYVPEKWIQ, 2; under AGSRQALSFEVPPCNYHPEKWIQ, 2.12.
With AGRRQALSFEVPPCNYDPEKWIQ, the protein stability index was 1.57.
Consider AGMRQALSFEVPPCNYDPEKWIQ, for which the protein stability index is 1.92.
On to AGGRQALSFEVPPCNYDPEKWIQ, for which the protein stability index came to 2.88.
In the case of AGPRQALSFEVPPCNYDPEKWIQ, the protein stability index is 2.18.
Regarding AGQRQALSFEVPPCNYDPEKWIQ, the protein stability index worked out at 1.6.
As for AGDRQALSFEVPPCNYDPEKWIQ, the figure is 1.86; as for AGVRQALSFEVPPCNYDPEKWIQ, 1.27; as for AGERQALSFEVPPCNYDPEKWIQ, 1.28.
